Positions count from the first letter of the chain named. Some results are limits rather than exact numbers.

The text below walks through data of US20260209306A1 (ALIVEGEN, published 2026).

The target of experiment [1] is T1, myostatin (UniProt O14793 267-375).
T1 sequence (looked up): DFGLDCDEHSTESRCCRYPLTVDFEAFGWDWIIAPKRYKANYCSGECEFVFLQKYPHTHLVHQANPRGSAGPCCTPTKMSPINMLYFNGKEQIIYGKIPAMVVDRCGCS
Description: cell-based or functional assay.

The target of another experiment is T2, activin A (UniProt P08476 311-426).
T2 sequence (looked up): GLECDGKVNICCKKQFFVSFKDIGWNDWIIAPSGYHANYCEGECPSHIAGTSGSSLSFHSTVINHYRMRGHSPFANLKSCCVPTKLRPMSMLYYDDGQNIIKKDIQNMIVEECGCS
Description: cell-based or functional assay.

Another experiment deals with T3, activin B (UniProt P09529 293-407).
T3 sequence (looked up): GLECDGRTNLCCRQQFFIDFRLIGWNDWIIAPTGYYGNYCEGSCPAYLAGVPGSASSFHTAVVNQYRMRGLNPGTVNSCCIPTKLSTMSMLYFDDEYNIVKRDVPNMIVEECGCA
The experiment can be described thus: cell-based or functional assay.

For experiment [2], the target named is T4, BMP9 (UniProt Q9UK05 320-429).
T4 sequence (looked up): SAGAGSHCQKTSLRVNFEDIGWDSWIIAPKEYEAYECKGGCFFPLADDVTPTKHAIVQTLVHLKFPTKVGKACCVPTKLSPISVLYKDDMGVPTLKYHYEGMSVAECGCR
The experiment can be described thus: cell-based or functional assay.

Experiment [3] has as its target T1, myostatin. Description: Octet Red BLI; protein on AHC biosensor, 10 nM ligand; legend +++ KD <10^-8M. As to the method:
(§1) Myostatin and BMP9 binding activities of various hybrid ActRIIB ligand trap proteins were initially analyzed using Octect Red (ForteBio). Purified proteins or conditioned media were individually loaded to AHC biosensors with maximum loading. Following a baseline washing phase, the sensors were exposed to 10 nM myostatin or BMP9, respectively, for an association step followed by a dissociation step. All experiments were performed with shaking at 1,000 rpm. Binding activity was analyzed using ForteBio's software with KD being calculated using the ratio Kd/Ka.
(In BLI a coated tip is dipped into the sample, and binding shifts an interference pattern.)

Experiment [4] has as its target T4, BMP9. The experiment can be described thus: Octet Red BLI; trap loaded on AHC biosensor. As to the method: as §1

B1: wild-type ActRIIB-ECD-Fc fusion protein (Fc fusion, not shown: a dimerising Fc or GST)
chain: ETRECIYYNANWELERTNQSGLERCEGEQDKRLHCYASWRNSSGTIELVKKGCWLDDFNCYDRQECVATEENPQVYFCCCEGNFCNERFTHLPEAGGPEVTYEPPPTAPTGGGGSESKYGPPCPPCP
On to B1, for which the “Cell-Based IC50 (nM) Against Myostatin; C2C12-CAGA-luc reporter” value (“Cell-Based IC50 (nM) Against Myostatin” for short) with myostatin [1] stood at 1.24 nM. The “Cell-Based IC50 (nM) Against Activin A; C2C12-CAGA-luc reporter” value with activin A was 1.27 nM. In addition, the “Cell-Based IC50 (nM) Against Activin B; C2C12-CAGA-luc reporter” value (“Cell-Based IC50 (nM) Against Activin B” for short) with activin B was determined as 1.04 nM. Further, in the experiment with BMP9 [2], the “Cell-Based IC50 (nM) Against BMP9; C2C12-BRE-luc reporter” value was found to be 3.4 nM.

B2: AG-0014 hybrid ActRIIB ligand trap protein (Fc fusion, not shown: a dimerising Fc or GST)
chain: B1 chain with E26Y, E28D, Q29K, L33R
With B2, the “Cell-Based IC50 (nM) Against Myostatin” value with myostatin [1] was 0.95 nM. Besides, the “Cell-Based IC50 (nM) Against Activin A; C2C12-CAGA-luc reporter” value in the experiment with activin A was 1.15 nM. For the same molecule, the “Cell-Based IC50 (nM) Against Activin B” value in the experiment with activin B came out at 2.1 nM.

B3: AG-0027 hybrid ActRIIB ligand trap protein (Fc fusion, not shown: a dimerising Fc or GST)
chain: B1 chain with E28D, F58I, E70K
Regarding B3, in the experiment with myostatin [1], the “Cell-Based IC50 (nM) Against Myostatin” value was 1.14 nM. Moreover, the “Cell-Based IC50 (nM) Against Activin A; C2C12-CAGA-luc reporter” value with activin A stood at 1.62 nM. In addition, in the experiment with activin B, the “Cell-Based IC50 (nM) Against Activin B” value was 1.3 nM.

B4: AG-0011 hybrid ActRIIB ligand trap protein (Fc fusion)
chain: B1 chain with E28D, A68E, T69K, E70K, E71D, N72S, Q74E, F84M
notes: ECD - linker - hinge linker - Fc; signal peptide left out; not shown: human Fc domain
For B4, in the experiment with myostatin [3], the KD is < 10 nM. Besides, in the experiment with BMP9 [4], the binding result is given as “no binding (tested: 10 nM BMP9)”.

Broadly, the KD is the free concentration of one partner at which half of the binding sites on the other are occupied at equilibrium, for simple one-to-one binding. Higher therefore signals lower affinity.
